Source: patent US20220372155A1 (LYVGEN BIOPHARMA, published 2022)

T1: human B7H4 expressed on CHO cells (human, UniProt Q7Z7D3 25-282)
T1 construct: whole, on cells; also called VCTN1
T1 sequence (looked up): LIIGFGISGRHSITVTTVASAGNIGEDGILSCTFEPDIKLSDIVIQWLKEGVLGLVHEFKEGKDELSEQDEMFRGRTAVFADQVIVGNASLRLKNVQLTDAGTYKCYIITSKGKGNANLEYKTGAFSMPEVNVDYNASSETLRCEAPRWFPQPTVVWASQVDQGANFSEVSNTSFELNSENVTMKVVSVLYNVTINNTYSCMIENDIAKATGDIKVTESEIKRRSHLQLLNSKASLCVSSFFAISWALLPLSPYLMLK

B1: Ly486 (bispecific antibody, human IgG1, kappa)
heavy: EVQLVESGGGLVKPGGSLKLSCAASGFTFSDSGMHWVRQAPEKGLEWITYINSGSSTIYYADSVKGRFTISRDNAKNTLFLQMTSLRSEDTAMYYCARGRGYAMDYWGQGTSVTVSSASTKGPSVFPLAPSSKSTSGGTAALGCLVKDYFPEPVTVSWNSGALTSGVHTFPAVLQSSGLYSLSSVVTVPSSSLGTQTYICNVNHKPSNTKVDKKVEPKSCDKTHTCPPCPAPELLGPSVFLFPPKPKDTLMISRTPEVTCVVVDVSHEDPEVKFNWYVDGVEVHNAKTKPREEQYNSTYRVVSVLTVLHQDWLNGKEYKCKVSNKALPAPIEKTISKAKGQPREPQVYTLPPSREEMTKNQVSLTCLVKGFYPSDIAVEWESNGQPENNYKTTPPVLDSDGSFFLYSKLTVDKSRWQQGNVFSCSVMHEALHNHYTQKSLSLSPGGGGGSGGGGSGGGGSGGGGSDIQMTQSPSSLSASVGDRVTITCKASQNIYIYLNWYQQKPGKAPKLLIYNTNNLQTGVPSRFSGSGSGTDFTLTISSLQPEDFATYYCLQHSSRRTFGGGTKVEIKGGGGSGGGGSGGGGSGGGGSQVQLVESGGGLVQPGGSLKLSCATSGFNFNDYFMNWVRQASGKGLEWVGQIRNKNYNYATYYTESLEGRVTISRDDSKNTAYLQMNSLKTEDTAVYYCTSYYYDGFADYFDYWGQGTTVTVSS
light: EIVLTQSPTTMAASPGEKITIFCSASSSISSDFLHWYQQKPGFSPKLLIYRISNLASGVPARFSGSGSGTSYSLTIGTMEAEDVATYYCQQGSNVPRTFGGGTKLEIKRTVAAPSVFIFPPSDEQLKSGTASVVCLLNNFYPREAKVQWKVDNALQSGNSQESVTEQDSKDSTYSLSSTLTLSKADYEKHKVYACEVTHQGLSSPVTKSFNRGEC
notes: Ly366 HC (IgG1 mutated Fc)-TM740 scFv VL-VH + Ly366 LC
B2: Ly488 (bispecific antibody, human IgG1, kappa)
heavy: EVQLVESGGGLVKPGGSLKLSCAASGFTFSDSGMHWVRQAPEKGLEWITYINSGSSTIYYADSVKGRFTISRDNAKNTLFLQMTSLRSEDTAMYYCARGRGYAMDYWGQGTSVTVSSASTKGPSVFPLAPSSKSTSGGTAALGCLVKDYFPEPVTVSWNSGALTSGVHTFPAVLQSSGLYSLSSVVTVPSSSLGTQTYICNVNHKPSNTKVDKKVEPKSCDKTHTCPPCPAPELLGPSVFLFPPKPKDTLMISRTPEVTCVVVDVSHEDPEVKFNWYVDGVEVHNAKTKPREEQYNSTYRVVSVLTVLHQDWLNGKEYKCKVSNKALPAPIEKTISKAKGQPREPQVYTLPPSREEMTKNQVSLTCLVKGFYPSDIAVEWESNGQPENNYKTTPPVLDSDGSFFLYSKLTVDKSRWQQGNVFSCSVMHEALHNHYTQKSLSLSPGK
light: EIVLTQSPTTMAASPGEKITIFCSASSSISSDFLHWYQQKPGFSPKLLIYRISNLASGVPARFSGSGSGTSYSLTIGTMEAEDVATYYCQQGSNVPRTFGGGTKLEIKRTVAAPSVFIFPPSDEQLKSGTASVVCLLNNFYPREAKVQWKVDNALQSGNSQESVTEQDSKDSTYSLSSTLTLSKADYEKHKVYACEVTHQGLSSPVTKSFNRGECGGGGSGGGGSGGGGSGGGGSDIQMTQSPSSLSASVGDRVTITCKASQNIYIYLNWYQQKPGKAPKLLIYNTNNLQTGVPSRFSGSGSGTDFTLTISSLQPEDFATYYCLQHSSRRTFGGGTKVEIKGGGGSGGGGSGGGGSGGGGSQVQLVESGGGLVQPGGSLKLSCATSGFNFNDYFMNWVRQASGKGLEWVGQIRNKNYNYATYYTESLEGRVTISRDDSKNTAYLQMNSLKTEDTAVYYCTSYYYDGFADYFDYWGQGTTVTVSS
notes: Ly366 HC (IgG1 mutated Fc) + Ly366 LC-TM740 scFv VL-VH
B3: Ly489 (bispecific antibody, human IgG1, kappa)
heavy: B2 heavy
light: EIVLTQSPTTMAASPGEKITIFCSASSSISSDFLHWYQQKPGFSPKLLIYRISNLASGVPARFSGSGSGTSYSLTIGTMEAEDVATYYCQQGSNVPRTFGGGTKLEIKRTVAAPSVFIFPPSDEQLKSGTASVVCLLNNFYPREAKVQWKVDNALQSGNSQESVTEQDSKDSTYSLSSTLTLSKADYEKHKVYACEVTHQGLSSPVTKSFNRGECGGGGSGGGGSGGGGSGGGGSQVQLVESGGGLVQPGGSLKLSCATSGFNFNDYFMNWVRQASGKGLEWVGQIRNKNYNYATYYTESLEGRVTISRDDSKNTAYLQMNSLKTEDTAVYYCTSYYYDGFADYFDYWGQGTTVTVSSGGGGSGGGGSGGGGSGGGGSDIQMTQSPSSLSASVGDRVTITCKASQNIYIYLNWYQQKPGKAPKLLIYNTNNLQTGVPSRFSGSGSGTDFTLTISSLQPEDFATYYCLQHSSRRTFGGGTKVEIK
notes: Ly366 HC (IgG1 mutated Fc) + Ly366 LC-TM740 scFv VH-VL
B4: Ly492 (bispecific antibody, human IgG1, kappa)
heavy: B2 heavy
light: EIVLTQSPTTMAASPGEKITIFCSASSSISSDFLHWYQQKPGFSPKLLIYRISNLASGVPARFSGSGSGTSYSLTIGTMEAEDVATYYCQQGSNVPRTFGGGTKLEIKRTVAAPSVFIFPPSDEQLKSGTASVVCLLNNFYPREAKVQWKVDNALQSGNSQESVTEQDSKDSTYSLSSTLTLSKADYEKHKVYACEVTHQGLSSPVTKSFNRGECGGGGSGGGGSGGGGSGGGGSDIQMTQSPSSLSASVGDRVTITCLASEDISNDLAWYQQKPGKAPKLLIYFVDRLLDGVPSRFSGSGSGTDFTLTISSLQPEDFATYYCQQSYKYPPTFGQGTKLEIKGGGGSGGGGSGGGGSGGGGSEVQLVESGGGLVQPGGSLRLSCAASGFTFTNYGLHWVRQAPGKGLEWVSSISPSGGVTYYRDSVKGRFTISRDNSKNTLYLQMNSLRAEDTAVYYCAKPFLGWGGANWIAHWGQGTLVTVSS
notes: Ly366 HC (IgG1 mutated Fc) + Ly366 LC-TM559 scFv VL-VH
B5: Ly493 (bispecific antibody, human IgG1, kappa)
heavy: B2 heavy
light: EIVLTQSPTTMAASPGEKITIFCSASSSISSDFLHWYQQKPGFSPKLLIYRISNLASGVPARFSGSGSGTSYSLTIGTMEAEDVATYYCQQGSNVPRTFGGGTKLEIKRTVAAPSVFIFPPSDEQLKSGTASVVCLLNNFYPREAKVQWKVDNALQSGNSQESVTEQDSKDSTYSLSSTLTLSKADYEKHKVYACEVTHQGLSSPVTKSFNRGECGGGGSGGGGSGGGGSGGGGSEVQLVESGGGLVQPGGSLRLSCAASGFTFTNYGLHWVRQAPGKGLEWVSSISPSGGVTYYRDSVKGRFTISRDNSKNTLYLQMNSLRAEDTAVYYCAKPFLGWGGANWIAHWGQGTLVTVSSGGGGSGGGGSGGGGSGGGGSDIQMTQSPSSLSASVGDRVTITCLASEDISNDLAWYQQKPGKAPKLLIYFVDRLLDGVPSRFSGSGSGTDFTLTISSLQPEDFATYYCQQSYKYPPTFGQGTKLEIK
notes: Ly366 HC (IgG1 mutated Fc) + Ly366 LC-TM559 scFv VH-VL
B6: Ly496 (bispecific antibody, human IgG1, kappa)
heavy: B2 heavy
light: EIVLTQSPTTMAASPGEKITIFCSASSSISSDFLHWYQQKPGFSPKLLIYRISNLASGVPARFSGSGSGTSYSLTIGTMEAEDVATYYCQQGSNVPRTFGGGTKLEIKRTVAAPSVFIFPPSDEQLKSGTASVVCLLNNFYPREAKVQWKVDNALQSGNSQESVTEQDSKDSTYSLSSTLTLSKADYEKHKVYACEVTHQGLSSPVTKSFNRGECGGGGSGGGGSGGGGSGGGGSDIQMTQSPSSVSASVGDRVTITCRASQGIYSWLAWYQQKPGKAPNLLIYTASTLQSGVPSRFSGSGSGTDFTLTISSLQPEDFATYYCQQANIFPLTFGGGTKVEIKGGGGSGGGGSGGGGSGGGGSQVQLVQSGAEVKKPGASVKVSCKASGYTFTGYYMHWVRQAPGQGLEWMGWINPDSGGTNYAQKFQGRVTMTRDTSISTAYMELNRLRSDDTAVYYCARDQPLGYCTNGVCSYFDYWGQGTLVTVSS
notes: Ly366 HC (IgG1 mutated Fc) + Ly366 LC-Ly253 scFv VL-VH
B7: Ly497 (bispecific antibody, human IgG1, kappa)
heavy: B2 heavy
light: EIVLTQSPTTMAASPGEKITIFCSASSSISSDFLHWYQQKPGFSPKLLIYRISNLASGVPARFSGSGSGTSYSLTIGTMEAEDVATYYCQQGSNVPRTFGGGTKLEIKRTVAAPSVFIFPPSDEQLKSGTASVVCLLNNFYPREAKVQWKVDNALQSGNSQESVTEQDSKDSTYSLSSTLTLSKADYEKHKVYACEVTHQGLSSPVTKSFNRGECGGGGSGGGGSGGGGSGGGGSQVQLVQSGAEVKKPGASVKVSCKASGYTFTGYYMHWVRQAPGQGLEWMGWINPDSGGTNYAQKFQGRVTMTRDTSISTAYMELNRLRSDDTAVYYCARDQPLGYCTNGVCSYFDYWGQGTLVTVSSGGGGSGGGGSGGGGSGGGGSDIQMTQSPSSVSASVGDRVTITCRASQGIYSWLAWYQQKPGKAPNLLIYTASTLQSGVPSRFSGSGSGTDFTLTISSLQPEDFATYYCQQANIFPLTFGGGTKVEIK
notes: Ly366 HC (IgG1 mutated Fc) + Ly366 LC-Ly253 scFv VH-VL
B8: Ly361 (chimeric) (antibody, human IgG1, kappa, V domains shown)
VH: EVQLVESGGDLVKPGGSLKLSCAASGFTFSSYGMSWVRQTPDKRLEWVAAISTGGSYTYYPDSVKGRFTISRDTATNTLYLQMSTLKSEDTAMYYCTRRGATGSWFAYWGQGTLVTVSA
VL: DILMTQSPSSMSVSLGDTVSITCHASQGINNNIGWLQRKPGKSFKGLIYHGTNLEDGVPSRFSGSGSGADYSLTISSLESEDFADYYCVQYVQFPRTFGGGTKLEIKR
notes: chimeric, human IgG1 constant region; also called hybridoma 14D3
B9: Ly366 (chimeric) (antibody, human IgG1, kappa, V domains shown)
VH: EVQLVESGGGLVKPGGSLKLSCAASGFTFSDSGMHWVRQAPEKGLEWITYINSGSSTIYYADSVKGRFTISRDNAKNTLFLQMTSLRSEDTAMYYCARGRGYAMDYWGQGTSVTVSS
VL: EIVLTQSPTTMAASPGEKITIFCSASSSISSDFLHWYQQKPGFSPKLLIYRISNLASGVPARFSGSGSGTSYSLTIGTMEAEDVATYYCQQGSNVPRTFGGGTKLEIKR
notes: chimeric, human IgG1 constant region; also called hybridoma 25F3
B10: Ly825 (bispecific antibody, human IgG1, kappa)
heavy: EVQLVESGGGLVQPGGSLRLSCAASGFTFTDYTMDWVRQAPGKGLEWVADVNPNSGGSIYNQRFKGRFTLSVDRSKNTLYLQMNSLRAEDTAVYYCARNLGPSFYFDYWGQGTLVTVSSASTKGPSVFPLAPSSKSTSGGTAALGCLVKDYFPEPVTVSWNSGALTSGVHTFPAVLQSSGLYSLSSVVTVPSSSLGTQTYICNVNHKPSNTKVDKKVEPKSCDKTHTCPPCPAPELLGPSVFLFPPKPKDTLMISRTPEVTCVVVDVSHEDPEVKFNWYVDGVEVHNAKTKPREEQYNSTYRVVSVLTVLHQDWLNGKEYKCKVSNKALPAPIEKTISKAKGQPREPQVYTLPPSREEMTKNQVSLTCLVKGFYPSDIAVEWESNGQPENNYKTTPPVLDSDGSFFLYSKLTVDKSRWQQGNVFSCSVMHEALHNHYTQKSLSLSPG
light: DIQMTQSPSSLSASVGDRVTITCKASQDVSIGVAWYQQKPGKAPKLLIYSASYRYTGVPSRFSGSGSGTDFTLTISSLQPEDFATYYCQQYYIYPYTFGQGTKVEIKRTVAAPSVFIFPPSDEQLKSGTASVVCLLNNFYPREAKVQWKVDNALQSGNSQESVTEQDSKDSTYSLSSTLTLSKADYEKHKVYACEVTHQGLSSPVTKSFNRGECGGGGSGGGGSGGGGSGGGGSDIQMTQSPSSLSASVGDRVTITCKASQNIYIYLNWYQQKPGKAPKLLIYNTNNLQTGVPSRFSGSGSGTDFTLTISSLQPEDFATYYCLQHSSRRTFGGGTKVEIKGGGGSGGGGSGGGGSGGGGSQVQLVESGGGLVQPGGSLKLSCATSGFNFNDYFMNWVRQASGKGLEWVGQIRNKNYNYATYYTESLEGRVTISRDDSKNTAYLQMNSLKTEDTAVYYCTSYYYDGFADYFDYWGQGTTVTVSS
notes: Ly591 HC (IgG1 mutated Fc) + Ly591 LC-TM740 scFv VL-VH
B11: Ly826 (bispecific antibody, human IgG1, kappa)
heavy: B10 heavy
light: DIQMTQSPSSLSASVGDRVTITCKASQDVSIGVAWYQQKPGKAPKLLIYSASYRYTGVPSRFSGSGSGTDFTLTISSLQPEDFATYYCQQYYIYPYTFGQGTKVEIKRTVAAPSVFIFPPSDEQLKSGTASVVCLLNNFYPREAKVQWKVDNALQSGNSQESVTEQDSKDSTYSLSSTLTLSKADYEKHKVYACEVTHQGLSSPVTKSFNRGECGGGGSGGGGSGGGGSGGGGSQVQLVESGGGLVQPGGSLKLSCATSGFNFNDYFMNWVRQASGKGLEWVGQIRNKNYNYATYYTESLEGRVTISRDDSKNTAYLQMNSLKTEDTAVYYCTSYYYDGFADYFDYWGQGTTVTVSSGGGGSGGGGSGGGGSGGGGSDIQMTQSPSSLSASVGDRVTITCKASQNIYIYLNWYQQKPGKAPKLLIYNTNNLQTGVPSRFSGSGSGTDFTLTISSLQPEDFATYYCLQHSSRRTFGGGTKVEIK
notes: Ly591 HC (IgG1 mutated Fc) + Ly591 LC-TM740 scFv VH-VL
B12: Ly827 (bispecific antibody, human IgG1, kappa)
heavy: B10 heavy
light: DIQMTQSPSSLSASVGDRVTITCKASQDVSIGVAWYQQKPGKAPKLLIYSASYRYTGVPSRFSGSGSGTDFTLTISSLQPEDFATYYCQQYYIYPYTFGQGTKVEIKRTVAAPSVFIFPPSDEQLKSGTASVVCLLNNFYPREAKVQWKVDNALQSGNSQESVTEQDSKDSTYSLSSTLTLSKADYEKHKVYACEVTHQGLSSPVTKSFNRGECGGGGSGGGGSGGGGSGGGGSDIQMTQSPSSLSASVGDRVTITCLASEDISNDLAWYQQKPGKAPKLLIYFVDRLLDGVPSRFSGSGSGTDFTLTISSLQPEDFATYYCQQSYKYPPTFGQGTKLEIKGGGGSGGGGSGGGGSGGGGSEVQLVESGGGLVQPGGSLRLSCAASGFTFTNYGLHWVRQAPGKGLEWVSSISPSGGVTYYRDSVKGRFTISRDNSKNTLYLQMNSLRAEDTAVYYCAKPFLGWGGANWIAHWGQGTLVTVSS
notes: Ly591 HC (IgG1 mutated Fc) + Ly591 LC-TM559 scFv VL-VH
B13: Ly828 (bispecific antibody, human IgG1, kappa)
heavy: B10 heavy
light: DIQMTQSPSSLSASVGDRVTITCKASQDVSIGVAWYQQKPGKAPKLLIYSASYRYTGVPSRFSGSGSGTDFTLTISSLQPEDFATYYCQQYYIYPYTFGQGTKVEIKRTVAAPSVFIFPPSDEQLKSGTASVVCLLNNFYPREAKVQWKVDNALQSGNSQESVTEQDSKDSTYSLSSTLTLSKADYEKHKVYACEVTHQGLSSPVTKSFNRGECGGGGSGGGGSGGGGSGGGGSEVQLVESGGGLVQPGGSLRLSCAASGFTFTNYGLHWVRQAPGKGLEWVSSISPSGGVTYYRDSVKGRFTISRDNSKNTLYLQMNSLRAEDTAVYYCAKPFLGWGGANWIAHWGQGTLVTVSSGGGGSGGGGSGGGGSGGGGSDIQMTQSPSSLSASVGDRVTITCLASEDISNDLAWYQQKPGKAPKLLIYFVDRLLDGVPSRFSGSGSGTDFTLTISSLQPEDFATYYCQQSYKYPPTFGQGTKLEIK
notes: Ly591 HC (IgG1 mutated Fc) + Ly591 LC-TM559 scFv VH-VL
B14: Ly835 (bispecific antibody, human IgG1, kappa)
heavy: B10 heavy
light: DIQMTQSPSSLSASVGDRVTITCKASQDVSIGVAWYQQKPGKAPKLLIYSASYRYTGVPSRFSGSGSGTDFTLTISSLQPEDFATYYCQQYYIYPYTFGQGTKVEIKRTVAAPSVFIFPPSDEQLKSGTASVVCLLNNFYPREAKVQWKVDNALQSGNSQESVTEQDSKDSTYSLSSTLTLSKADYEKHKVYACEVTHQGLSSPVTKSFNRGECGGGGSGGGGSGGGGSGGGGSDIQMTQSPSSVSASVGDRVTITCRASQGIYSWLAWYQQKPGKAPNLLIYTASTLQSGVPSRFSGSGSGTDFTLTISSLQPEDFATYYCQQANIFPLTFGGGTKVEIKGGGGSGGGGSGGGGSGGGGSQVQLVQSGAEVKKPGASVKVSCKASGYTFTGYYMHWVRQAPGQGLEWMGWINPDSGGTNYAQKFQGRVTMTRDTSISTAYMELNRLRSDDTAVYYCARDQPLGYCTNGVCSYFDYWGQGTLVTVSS
notes: Ly591 HC (IgG1 mutated Fc) + Ly591 LC-Ly253 scFv VL-VH
B15: Ly836 (bispecific antibody, human IgG1, kappa)
heavy: B10 heavy
light: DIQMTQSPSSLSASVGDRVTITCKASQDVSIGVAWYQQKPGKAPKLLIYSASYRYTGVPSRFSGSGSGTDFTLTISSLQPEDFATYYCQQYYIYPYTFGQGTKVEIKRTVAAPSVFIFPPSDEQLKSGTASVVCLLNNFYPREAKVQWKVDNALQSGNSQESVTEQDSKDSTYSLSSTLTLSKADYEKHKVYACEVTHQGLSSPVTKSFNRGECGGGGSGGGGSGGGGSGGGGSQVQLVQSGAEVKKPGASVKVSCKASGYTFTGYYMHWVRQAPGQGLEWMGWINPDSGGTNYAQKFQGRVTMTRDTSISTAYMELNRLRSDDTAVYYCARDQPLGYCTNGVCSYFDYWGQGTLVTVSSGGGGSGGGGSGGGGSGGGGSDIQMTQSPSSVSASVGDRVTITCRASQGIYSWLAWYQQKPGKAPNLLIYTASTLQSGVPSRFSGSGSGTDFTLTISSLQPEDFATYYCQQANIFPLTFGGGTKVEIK
notes: Ly591 HC (IgG1 mutated Fc) + Ly591 LC-Ly253 scFv VH-VL
B16: LP3772 (antibody, human IgG4 S228P, kappa)
heavy: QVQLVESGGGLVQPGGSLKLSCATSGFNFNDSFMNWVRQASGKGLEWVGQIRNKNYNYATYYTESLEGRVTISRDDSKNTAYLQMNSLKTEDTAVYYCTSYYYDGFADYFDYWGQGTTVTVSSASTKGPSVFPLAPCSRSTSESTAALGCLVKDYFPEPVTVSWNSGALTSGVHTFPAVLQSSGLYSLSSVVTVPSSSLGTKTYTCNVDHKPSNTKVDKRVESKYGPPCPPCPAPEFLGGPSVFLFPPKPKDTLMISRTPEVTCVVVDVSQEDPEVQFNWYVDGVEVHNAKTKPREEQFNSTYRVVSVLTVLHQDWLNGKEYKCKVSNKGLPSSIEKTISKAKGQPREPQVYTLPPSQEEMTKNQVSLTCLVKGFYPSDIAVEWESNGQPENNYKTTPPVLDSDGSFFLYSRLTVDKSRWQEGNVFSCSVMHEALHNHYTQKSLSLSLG
light: DIQMTQSPSSLSASVGDRVTITCKASQNIYIYLNWYQQKPGKAPKLLIYNTNNLQTGVPSRFSGSGSGTDFTLTISSLQPEDFATYYCLQHSSRRTFGGGTKVEIKRTVAAPSVFIFPPSDEQLKSGTASVVCLLNNFYPREAKVQWKVDNALQSGNSQESVTEQDSKDSTYSLSSTLTLSKADYEKHKVYACEVTHQGLSSPVTKSFNRGEC
notes: VH-2/IgG4, VL-1/kappa

The binders below were run against T1, human B7H4 expressed on CHO cells (assay: FACS, CHO cells).

Row | Binder | binding result
1 | B1 | binds
2 | B2 | binds
3 | B3 | binds
4 | B4 | binds
5 | B5 | binds
6 | B6 | binds
7 | B7 | binds
8 | B8 | binds
9 | B9 | binds

What follows are binders tested against T2, human CD40 expressed on CHO cells (human, UniProt P25942 21-277) (assay: FACS, CHO cells).
T2 construct: whole, on cells; also used for the reporter cells over-expressing human CD40; also called cellular CD40; CHO-CD40 cells
T2 sequence (P25942 21-277): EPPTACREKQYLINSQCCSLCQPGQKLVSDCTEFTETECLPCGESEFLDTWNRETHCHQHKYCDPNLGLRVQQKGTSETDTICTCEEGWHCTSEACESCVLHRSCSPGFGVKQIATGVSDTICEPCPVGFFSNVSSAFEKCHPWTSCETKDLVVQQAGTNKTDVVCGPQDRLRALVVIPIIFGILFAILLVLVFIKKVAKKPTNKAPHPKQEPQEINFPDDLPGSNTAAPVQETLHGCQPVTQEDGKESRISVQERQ

Row | Binder | binding result
10 | B1 | binds
11 | B2 | binds
12 | B3 | binds
13 | B4 | binds
14 | B5 | binds
15 | B6 | binds
16 | B7 | binds
17 | B10 | binds
18 | B11 | binds
19 | B12 | binds
20 | B13 | binds
21 | B14 | binds
22 | B15 | binds
23 | B16 | binds
